# B1: G9A: recombinant G9A methyltransferase (NEB, M0235S) (protein, UniProt Q96KQ7 2-1210, looked up)
# Histone-lysine …: AAAAGAAAAAAAEGEAPAEMGALLLEKETRGATERVHGSLGDTPRSEETLPKATPDSLEPAGPSSPASVTVTVGDEGADTPVGATPLIGDESENLEGDGDLRGGRILLGHATKSFPSSPSKGGSCPSRAKMSMTGAGKSPPSVQSLAMRLLSMPGAQGAAAAGSEPPPATTSPEGQPKVHRARKTMSKPGNGQPPVPEKRPPEIQHFRMSDDVHSLGKVTSDLAKRRKLNSGGGLSEELGSARRSGEVTLTKGDPGSLEEWETVVGDDFSLYYDSYSVDERVDSDSKSEVEALTEQLSEEEEEEEEEEEEEEEEEEEEEEEEDEESGNQSDRSGSSGRRKAKKKWRKDSPWVKPSRKRRKREPPRAKEPRGVNGVGSSGPSEYMEVPLGSLELPSEGTLSPNHAGVSNDTSSLETERGFEELPLCSCRMEAPKIDRISERAGHKCMATESVDGELSGCNAAILKRETMRPSSRVALMVLCETHRARMVKHHCCPGCGYFCTAGTFLECHPDFRVAHRFHKACVSQLNGMVFCPHCGEDASEAQEVTIPRGDGVTPPAGTAAPAPPPLSQDVPGRADTSQPSARMRGHGEPRRPPCDPLADTIDSSGPSLTLPNGGCLSAVGLPLGPGREALEKALVIQESERRKKLRFHPRQLYLSVKQGELQKVILMLLDNLDPNFQSDQQSKRTPLHAAAQKGSVEICHVLLQAGANINAVDKQQRTPLMEAVVNNHLEVARYMVQRGGCVYSKEEDGSTCLHHAAKIGNLEMVSLLLSTGQVDVNAQDSGGWTPIIWAAEHKHIEVIRMLLTRGADVTLTDNEENICLHWASFTGSAAIAEVLLNARCDLHAVNYHGDTPLHIAARESYHDCVLLFLSRGANPELRNKEGDTAWDLTPERSDVWFALQLNRKLRLGVGNRAIRTEKIICRDVARGYENVPIPCVNGVDGEPCPEDYKYISENCETSTMNIDRNITHLQHCTCVDDCSSSNCLCGQLSIRCWYDKDGRLLQEFNKIEPPLIFECNQACSCWRNCKNRVVQSGIKVRLQLYRTAKMGWGVRALQTIPQGTFICEYVGELISDAEADVREDDSYLFDLDNKDGEVYCIDARYYGNISRFINHLCDPNIIPVRVFMLHQDLRFPRIAFFSSRDIRTGEELGFDYGDRFWDIKSKYFTCQCGSEKCKHSAEAIALEQSRLARLDPHPELLPELGSLPPVNT
# Experiments:
# Type in all cases: biochemical
# [1] = target: T1, H1.0 peptide (Homo sapiens, UniProt P07305); assay: Radiolabel in vitro methylation assay with G9A; conditions: 10 U G9A, 37° C. 1 hour, autoradiography
# T1 construct: purchased ThermoFisher Scientific (peptide); NEB (G9A) M0235S (G9A)
# Procedure: In order to visualize methylation of H1.0 peptide by G9A methyltransferase in vitro, a methylation assay was performed incorporating a radiolabelled methyl donor, which allows for visualization of methylated peptide on a gel after autoradiography exposure. The following methylation reaction was set up in a 1.5 ml tube: 1×HMT reaction buffer (50 mM Tris-HCl, 5 mM MgCl2, 4 mM dithiothreitol, pH 9.0), 10 U G9A Methyltransferase (NEB, M0235S, Lot #0031201), 3.2 mM Adenosyl-L-Methionine, S-[Methyl-3H] (Perkin Elmer, NET155H, Lot #1664720), 10 μg H1.0 peptide (ThermoFisher Scientific, Biotin-[…] (SEQ ID NO:75)), final volume 10 μl. A control reaction as above but without H1.0 peptide was also created. Reactions were incubated in a thermocycler at 37° C. for 1 hour. Reactions were stopped by incubating on ice for 5 minutes, and subsequently resolved on a 16.5% Tricine gel (BioRad, 4563063). Gels were soaked in 30% methanol, 5% glycerol for 30 minutes before vacuum drying at RT for 24 hours. Autoradiography analysis of dried gels with a phosphorimager (Molecular Dynamics) was then performed to assess effective methylation of H1.0 peptide with methyl-3H groups by the G9A methyltransferase.
# The methylation reaction was subsequently resolved on a gel and visualized via autoradiography. […] A control reaction lacking H1.0 peptide yielded no tritium-labeled products.
# [2] = target: T2, unmodified H1.0 peptide ([…] (SEQ ID NO:42)) (Homo sapiens, UniProt P07305); assay: In vitro methylation with G9A, products identified by LC-MS
# T2 construct: purchased ThermoFisher Scientific (peptide); NEB (G9A) M0235S (G9A)
# Procedure: (§1) In order to identify the precise sites of methylation by G9A and GLP methyltransferases on histone H1.0, in vitro methylation assays were performed and subsequently analyzed by Liquid Chromatography and High-resolution Mass Spectrometry (LC-MS) analysis. Methylation reactions were set up using either G9A methyltransferase (NEB, M0235S, Lot #0031201) or GLP methyltransferase (Cayman Chemical, 10755). The methyl donor in each reaction was unlabeled S-Adenosyl-L-Methionine (NEB, B9003S). […]
# (§2) For the Liquid Chromatography and High-resolution Mass Spectrometry (LC-MS) analysis, samples were prepared as described above and about 1 μg o the product was injected onto a Thermo Scientific Easy nLC system configured with a 10 cm×100 um trap column and a 25 cm×100 um ID resolving column. […] This ensured optimal full-scan data for quantification. […]
# (§3) Protein identification was performed using Thermo Scientific Proteome Discoverer version 1.4 (including Sequest and Percolator algorithms) using RefSeqHuman sequence database. […] Protein quantification was performed using Pinpoint version 1.4 software. The Pinpoint quantification workflow included importing the Proteome Discoverer .msf files as spectral libraries. Identified peptides were subsequently quantified in MS .raw files using the Pinpoint peak finding, chromatographic alignment and area calculation algorithms. […]
# [3] = target: T3, K180me2 peptide (H1.0 AA 165-182) (Homo sapiens, UniProt P07305); assay: as above; conditions: K180me2 peptide as substrate
# T3 construct: the K180me2 peptide (H1.0 AA 165-182) was used as a substrate; purchased ThermoFisher Scientific (peptide); NEB (G9A) M0235S (G9A)
# Procedure: In order to identify the precise sites of methylation by G9A and GLP methyltransferases on histone H1.0, in vitro methylation assays were performed and subsequently analyzed by Liquid Chromatography and High-resolution Mass Spectrometry (LC-MS) analysis. Methylation reactions were set up using either G9A methyltransferase (NEB, M0235S, Lot #0031201) or GLP methyltransferase (Cayman Chemical, 10755). The methyl donor in each reaction was unlabeled S-Adenosyl-L-Methionine (NEB, B9003S). The H1.0 substrate in each reaction was either unmodified H1.0 peptide labeled with biotin (ThermoFisher Scientific, Biotin-[…] (SEQ ID NO:75)), di-methylated H1.0 peptide (ThermoFisher Scientific, Biotin-[…]^(me2)PK (SEQ ID NO:76)), or full-length recombinant human H1.0 (NEB, M2501S). Methylation reactions were set up in triplicate for each condition as follows: 1×HMT reaction buffer (50 mM Tris-HCl, 5 mM MgCl2, 4 mM dithiothreitol, pH 9.0); 10 U G9A or GLP Methyltransferase; 3.2 mM S-Adenosyl-L-Methionine; 500 ng unmodified or modified H1.0 peptide, or 1 μg full-length protein; final volume 10 μl. As controls, reactions were set up as above but without any methyltransferase present. […]
# as §2, §3
# [4] = target: T4, recombinant human H1.0 protein (Homo sapiens, UniProt P07305); assay: as above; conditions: 1 μg full-length protein
# T4 construct: full-length recombinant human H1.0 (NEB, M2501S); purchased NEB M2501S (H1.0); M0235S (G9A)
# Procedure: as §1, §2, §3
molecule,measurement,setting,value
B1,methylation of H1.0 peptide with tritium-labeled methyl groups (band at 4 kDa),[1],capable of methylating H1.0 peptide
same,"peptides dimethylated at H1.0K180, % of all peptides","[2]; 10 U enzyme, 3.2 mM S-Adenosyl-L-Methionine, 37° C. 1 hour, spectral counts",99.9%
same,estimated methylation efficiency for K180 dimethylation,"[2]; other lysines (K166, K174, K175 or K177) not dimethylated",about 99%
same,"H1.0K166me1K180me2, % of the total peptide in the reaction",[3],1.27%
same,"H1.0K174me1K180me3, % of the total peptide in the reaction",[3],1.06%
same,"H1.0K174me3K175me3K177me1K180me2, % of the total peptide in the reaction",[3],0.35%
same,sites of methylation on full-length H1.0,[4],"methylates C-terminal lysine residues, including H1.0K180me2"

# Reference: patent US20240255509A1, “COMPOSITIONS AND METHODS RELATED TO K180 DIMETHYLATED H1.0 PROTEIN” (Aelan Cell Technologies, Inc., priority 2016, published 2024)
